According to paper doi:10.1101/2021.05.23.445325 (bioRxiv, 2021):
No end group written: not given here.

How the values were obtained:
GST-NXF1:p15 complex = biological target: T1, GST-NXF1:p15 complex (UniProt Q9UBU9 1-619; Q9UKK6 1-140); test: pull-down
T1 sequence (looked up) 1: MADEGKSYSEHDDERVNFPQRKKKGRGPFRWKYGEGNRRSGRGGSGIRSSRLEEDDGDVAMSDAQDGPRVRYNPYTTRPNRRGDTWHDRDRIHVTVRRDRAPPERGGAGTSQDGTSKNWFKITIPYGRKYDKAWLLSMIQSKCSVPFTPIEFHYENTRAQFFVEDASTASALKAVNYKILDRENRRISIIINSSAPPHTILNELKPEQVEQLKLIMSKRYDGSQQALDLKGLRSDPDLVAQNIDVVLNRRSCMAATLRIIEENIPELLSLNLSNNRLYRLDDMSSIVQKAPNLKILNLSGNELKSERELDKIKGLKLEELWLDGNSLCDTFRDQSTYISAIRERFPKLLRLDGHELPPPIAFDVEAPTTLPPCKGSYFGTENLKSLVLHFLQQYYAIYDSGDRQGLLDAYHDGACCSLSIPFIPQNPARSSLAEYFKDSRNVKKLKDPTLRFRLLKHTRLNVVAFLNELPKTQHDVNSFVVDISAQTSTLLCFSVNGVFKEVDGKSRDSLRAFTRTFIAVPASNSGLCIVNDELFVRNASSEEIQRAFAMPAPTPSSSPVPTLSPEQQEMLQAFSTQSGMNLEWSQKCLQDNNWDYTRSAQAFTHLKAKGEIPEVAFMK
T1 sequence (looked up) 2: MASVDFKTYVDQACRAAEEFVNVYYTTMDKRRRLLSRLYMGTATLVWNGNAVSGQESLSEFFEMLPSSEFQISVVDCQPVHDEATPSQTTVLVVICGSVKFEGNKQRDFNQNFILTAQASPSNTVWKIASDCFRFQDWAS

6His-NXF1 1-198 = biological target: T2, 6His-NXF1 1-198 (UniProt Q9UBU9 1-198); test: ITC
T2 sequence (looked up): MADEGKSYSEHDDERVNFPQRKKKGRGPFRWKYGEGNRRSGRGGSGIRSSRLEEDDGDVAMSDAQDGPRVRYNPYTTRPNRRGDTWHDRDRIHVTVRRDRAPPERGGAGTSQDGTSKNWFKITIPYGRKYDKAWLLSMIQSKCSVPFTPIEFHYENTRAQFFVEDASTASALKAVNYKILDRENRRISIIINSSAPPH

B1: SRSF1 (amino-acids 11-196), 6His-tagged (domain or fragment, UniProt Q07955 11-196, looked up)
chain: AGNNDCRIYVGNLPPDIRTKDIEDVFYKYGAIRDIDLKNRRGGPPFAFVEFEDPRDAEDAVYGRDGYDYDGYRLRVEFPRSGRGTGRGGGGGGGGGAPRGRYGPPSRRSENRVVVSGLPPSGSWQDLKDHMREAGDVCYADVYRDGTGVVEFVRKEDMTYAVRKLDNTKFRSHEGETAYIRVKVDG
Q: Does B1 bind (GST-NXF1:p15 complex)?
A: binds

Q: How did the “fold increase of affinity against the wild-type SRSF1 peptide” value (6His-NXF1 1-198) turn out when PRSGRGTGRGGGGGGGGGAPRGRYGPPSRRSEYGRKKRRQRRR (peptide, UniProt Q07955 89-120, looked up) [SRSF1 WT-CPP (SRSF1 aa89-120, V5 tag, TAT protein transduction domain)] was run?
A: 5 fold

Q: PASGAGTGRGGGGGGGGGAPRGRYGPPSAASE (peptide, UniProt Q07955 89-120, looked up, also: FAM label, position not given here) [SRSF1 aa 89-120 m4-mutant peptide] was tested. Which “fold reduction of affinity against SRSF1 WT-CPP” value (6His-NXF1 1-198) did it give?
A: ~10 fold

Q: Does PRSGRGTGRGGGGGGGGGAPRGRYGPPSRRSE (peptide, UniProt Q07955 89-120, looked up, also: FAM label, position not given here) [SRSF1 aa 89-120 wild-type peptide] bind (6His-NXF1 1-198)?
A: binds
